We go through 7 molecules from patent US20130171178A1 (US Dept. of Health and Human Services, published 2013).

A value given as a limit tells only on which side of the number the result lay.

The chains are these.
B1: 3M xage-1 14 (peptide)
peptide: GVMPSAPSPV
B2: 2L3M xage-1 14 (peptide)
peptide: GLMPSAPSPV
B3: 2L xage-1 14 (peptide)
peptide: GLFPSAPSPV
B4: 1Y xage-1 14 (peptide)
peptide: YVFPSAPSPV
B5: 1Y2L xage-1 14 (peptide)
peptide: YLFPSAPSPV
B6: xage-1 57 peptide (peptide)
peptide: HTASPRSPVM
notes: Synthetic 10-mer
B7: xage-1 33 peptide (peptide)
peptide: ATRVPEVWIL
notes: Synthetic 10-mer

The target in the first assay is HLA-A2 MHC class I molecule (human). Nature of the assay: T2 binding assay, surface HLA-A2 by flow cytometry. As for the experimental part:
Binding affinity to HLA-A2 of synthetic peptides derived from the XAGE-1 amino acid sequence was measured by using T2 cells. The T2 cell line is a T-B fusion hybridoma cell line deficient in TAP1 and TAP2 gene expression available from the ATCC under accession number CRL-1992. T2 cells suspended in Dulbecco's modified Eagles' medium (DMEM) containing 2.5% fetal calf serum (FCS) were incubated overnight with different concentrations of the peptides and 10 μg/ml of β2-microglobulin. The cells were washed twice with phosphate buffered saline (PBS) containing 2% FCS and incubated on ice with anti-HLA-A2 monoclonal antibody (BB7.2, produced by ATCC cell line HB-82) for 30 min. After a single wash, the cells were stained with FITC-labeled goat anti-mouse Ig antibody for 30 min on ice. The cells were washed twice, and expression of HLA-A2 was measured by flow cytometry. The expression level of HLA-A2 was determined as follows: mean fluorescent index (F.I.)=(mean fluorescent intensity of the sample with peptide−mean fluorescent intensity of the sample without peptide)/mean fluorescent intensity of the sample without peptide; mean fluorescent intensity=geometric mean fluorescent intensity of the sample stained with both 1st and 2nd antibody−geometric mean fluorescent intensity of the sample stained with 2nd antibody alone.
A series of peptides derived from xage-1 14 were discovered with enhanced binding to HLA-A2.
B1 came in with an FI50 of 0.28 µM.
For the molecule B2, the FI50 stood at 0.62 µM.
On the same count and under the same terms, next, B3: 1.86 µM; B4: 2.36 µM; B5: 3.04 µM.

Another assay shares this target. The assay can be described thus: T2 binding assay, surface HLA-A2 by flow cytometry (BB7.2). For orientation: A flow cytometer gives signals particle by particle.
The molecule B6 yielded a F.I.50 of more than 50 µM.
The same measure, in the same setting: next, B7: more than 50 µM.
